B1: canine TNFR-HCC (caTNFRp50:ca IgGHCC Fc), SEQ ID NO:8 (Fc fusion)
chain: LVPHPRNRVKRAILCPQGKYIHPQDDSICCTKCHKGTYLYNDCPGPGLDTDCRECENGTFTASENHLRQCLSCSKCRKEMNQVEISPCTVYRDTVCGCRKNQYRFYWSETLFQCNNCSLCLNGTVQISCQEKQNTICTCHAGFFLREHECVSCVNCKKNTECGKLCLPPVETVKVPQDPGSTAKECECKCNCNNCPCPGCGLLGGPSVFIFPPKPKDILVTARTPTVTCVVVDLDPENPEVQISWFVDSKQVQTANTQPREEQSNGTYRVVSVLPIGHQDWLSGKQFKCKVNNKALPSPIEEIISKTPGQAHQPNVYVLPPSRDEMSKNTVTLTCLVKDFFPPEIDVEWQSNGQQEPESKYRMTPPQLDEDGSYFLYSKLSVDKSRWQRGDTFICAVMHEALHNHYTQISLSHSPGK
notes: Expressed in CHO cells; also called caTNFrecp60-HCC; canine TNFR-HCC fusion protein
B2: canine TNFR-HCB (caTNFRp50:ca IgGHCB Fc), SEQ ID NO:7 (Fc fusion)
chain: LVPHPRNRVKRAILCPQGKYIHPQDDSICCTKCHKGTYLYNDCPGPGLDTDCRECENGTFTASENHLRQCLSCSKCRKEMNQVEISPCTVYRDTVCGCRKNQYRFYWSETLFQCNNCSLCLNGTVQISCQEKQNTICTCHAGFFLREHECVSCVNCKKNTECGKLCLPPVETVKVPQDPGSTPKRENGRVPRPPDCPKCPAPEMLGGPSVFIFPPKPKDTLLIARTPEVTCVVVDLDPEDPEVQISWFVDGKQMQTAKTQPREEQFNGTYRVVSVLPIGHQDWLKGKQFTCKVNNKALPSPIERTISKARGQAHQPSVYVLPPSREELSKNTVSLTCLIKDFYPPDIDVEWQSNGQQEPESKYRTTPPQLDEDGSYFLYSKLSVDKSRWQRGDTFICAVMHEALHNHYTQESLSHSPGK
notes: Expressed in CHO cells; also called caTNFrecp60-HCB; canine TNFR-HCB fusion protein

Tests used:
canine TNF-alpha = canine TNF-alpha (canine, UniProt P51742 77-233); assay: cell-based or functional assay
[1] = biological target: T1, complement C1q (from normal human serum) (human, UniProt P02745 23-245; P02746 28-253; P02747 29-245); assay: C1q binding ELISA; fusion protein on plates coated with canine TNF (4 µg/ml), human serum as source of complement
T1 construct: Native C1q in normal human serum, detected with a C1q reactive polyclonal antibody-HRP conjugate
Protocol: The canine TNFR-HCB, canine TNFR-HCC and human TNFR-canine HCB fusion proteins were incubated with plates pre-coated with canine TNF (4 μg/ml). For comparison, a caninised monoclonal antibody (MAb, canine isotype HCB) with specificity to nerve growth factor (NGF) was incubated with plates coated with NGF. The plates were washed and incubated with normal or heat-killed human serum as a source of complement. Binding of complement C1q was detected using a C1q reactive polyclonal antibody-HRP conjugate.

Sequence of canine TNF-alpha (P51742 77-233 limits assumed): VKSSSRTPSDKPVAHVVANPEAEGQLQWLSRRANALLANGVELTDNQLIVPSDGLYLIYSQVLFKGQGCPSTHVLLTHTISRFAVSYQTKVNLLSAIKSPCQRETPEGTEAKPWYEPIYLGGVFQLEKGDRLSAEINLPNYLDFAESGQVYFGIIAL
T1 sequence (P02745 23-245 limits assumed, chain 1 of 3): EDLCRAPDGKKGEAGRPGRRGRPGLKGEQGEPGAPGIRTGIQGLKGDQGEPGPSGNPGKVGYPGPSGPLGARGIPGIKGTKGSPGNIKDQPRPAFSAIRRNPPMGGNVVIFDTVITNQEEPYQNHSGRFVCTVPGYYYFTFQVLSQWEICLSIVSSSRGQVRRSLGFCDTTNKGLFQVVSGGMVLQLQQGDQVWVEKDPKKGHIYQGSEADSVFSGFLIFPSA
T1 sequence (P02746 28-253 limits assumed, chain 2 of 3): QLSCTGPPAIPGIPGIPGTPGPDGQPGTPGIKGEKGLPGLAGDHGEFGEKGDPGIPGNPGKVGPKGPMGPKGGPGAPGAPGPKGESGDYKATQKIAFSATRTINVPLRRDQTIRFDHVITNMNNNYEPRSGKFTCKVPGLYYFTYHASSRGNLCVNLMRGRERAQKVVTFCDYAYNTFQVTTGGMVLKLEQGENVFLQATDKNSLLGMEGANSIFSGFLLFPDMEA
T1 sequence (P02747 29-245 limits assumed, chain 3 of 3): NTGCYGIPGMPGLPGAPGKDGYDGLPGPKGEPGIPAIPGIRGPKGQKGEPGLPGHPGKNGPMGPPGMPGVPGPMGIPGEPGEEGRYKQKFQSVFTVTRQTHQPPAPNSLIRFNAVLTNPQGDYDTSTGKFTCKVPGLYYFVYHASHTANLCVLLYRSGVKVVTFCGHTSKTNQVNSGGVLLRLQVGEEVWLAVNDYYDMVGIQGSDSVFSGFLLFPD

| Binder | inhibition of canine TNF-alpha bioactivity (1 ng/ml) in 293-HEK cells with NF-kB-EGFP reporter construct pTRH1; IC50 (canine TNF-alpha) [ng/ml] | binding result [1] |
| --- | --- | --- |
| B1 | ~1 | no binding |
| B2 | ~1 | no binding |

From patent US20150037333A1 (NEXVET AUSTRALIA, published 2015)
